Source: US20080292632A1 (US Dept. of Health and Human Services, published 2008)

Legend:
Experiment in all cases: IRTA Fc-fusion
[1] = target: T1, IRTA5 extracellular domain-Fc fusion protein (human, UniProt Q96LA6 17-307)
T1 construct: Whole entry named; also called IRTA5-Fc; IRTA5 (Fc-fusion); not shown: human IgG1 hinge and Fc
T1 sequence: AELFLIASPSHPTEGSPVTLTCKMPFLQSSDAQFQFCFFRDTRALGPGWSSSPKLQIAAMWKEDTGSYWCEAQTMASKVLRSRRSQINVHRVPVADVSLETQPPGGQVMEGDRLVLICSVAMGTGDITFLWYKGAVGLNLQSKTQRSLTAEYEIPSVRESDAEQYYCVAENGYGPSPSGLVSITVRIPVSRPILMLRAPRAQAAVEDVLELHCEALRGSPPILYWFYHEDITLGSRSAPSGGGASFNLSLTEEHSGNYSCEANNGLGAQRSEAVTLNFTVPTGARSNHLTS
Experimental: (§1) Each Fc-fusion protein indicated on the top of the column was captured on ELISA plates using secondary antibody (goat anti-human IgG). After washing, 100 ng/50 μl/well of MAbs were added, followed by HRP-labeled goat anti-mouse IgG and TMBZ substrate. The signals in ELISA were normalized for the amounts of each Fc-fusion protein on the plates using HRP-goat anti-human Fc. The controls are MAbs 9E10 (anti-myc tag, IgG1), BerH2 (anti-CD30, IgG1), T408 (anti-CD30, IgG2a), T420 (anti-CD30, IgG2b) and HRP-goat anti-human Fc (1/2400 dilution). […] Two days after transfection, the cells were harvested and incubated with 200 ng/100 μl of each MAb, followed by PE-conjugated goat anti-mouse IgG F(ab′)2. […] In the positive control panels, the MAbs cross-reactive to other IRTAs were used. They are F26 (anti-IRTA1 and anti-IRTA2, IgG2b), F109 (anti-IRTA3, IgG2b), F47 (anti-IRTA4, IgG2a), and F69 (anti-IRTA5, IgG2a). BerH2 (anti-CD30, IgG1) was also used. “+” indicates more than 1.5-fold than that of the control; “++” indicates more than 10-fold mean fluorescence intensity than that of the negative control.
(§2) ELISA. In a typical indirect ELISA for the screening of hybridomas, microtiter plates (MaxiSorp; Nalge Nunc, Rochester, N.Y.) were coated with 100 ng/50 μl/well of goat anti-human IgG in phosphate buffered saline (PBS) for 2 hours at room temperature. Next, 50 ng/100 μl/well of IRTA2-Fc in blocking buffer (25% DMEM, 5% FBS, 25 mM HEPES, 0.5% bovine serum albumin, 0.1% sodium azide in PBS) was added to each well and incubated for 2 hours at room temperature. After washing with PBS containing 0.05% Tween 20, 50 μl of the hybridoma supernatants were added and incubated for 2 hours at room temperature. After washing, the bound MAbs were detected by a 2-hour incubation with horseradish peroxidase (HRP)-labeled goat anti-mouse IgG (Jackson ImmunoResearch, Grove, Pa.) followed by tetramethylbenzidine (TMB) substrate kit (Pierce, Rockford, Ill.). In some experiments, other IRTA-Fc fusion proteins were used instead of IRTA2-Fc.

[2] = target: T2, IRTA1 extracellular domain-Fc fusion protein (human, UniProt Q96PJ5 20-387)
T2 construct: Whole entry named; also called IRTA1-Fc; IRTA1 (Fc-fusion); not shown: human IgG1 hinge and Fc
T2 sequence: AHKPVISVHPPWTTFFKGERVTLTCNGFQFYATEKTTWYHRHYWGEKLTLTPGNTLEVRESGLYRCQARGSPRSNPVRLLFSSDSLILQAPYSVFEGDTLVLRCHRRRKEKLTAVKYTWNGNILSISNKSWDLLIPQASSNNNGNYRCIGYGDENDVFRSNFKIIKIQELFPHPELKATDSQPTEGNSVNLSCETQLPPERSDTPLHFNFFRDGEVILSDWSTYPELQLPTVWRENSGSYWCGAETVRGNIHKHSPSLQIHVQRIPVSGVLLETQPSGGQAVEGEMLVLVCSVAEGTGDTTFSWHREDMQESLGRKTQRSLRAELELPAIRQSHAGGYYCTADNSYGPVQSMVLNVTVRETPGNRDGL
Experimental: as §1, §2

[3] = target: T3, IRTA3 extracellular domain-Fc fusion protein (human, UniProt Q96P31 18-573)
T3 construct: Whole entry named; also called IRTA3-Fc; IRTA3 (Fc-fusion); not shown: human IgG1 hinge and Fc
T3 sequence: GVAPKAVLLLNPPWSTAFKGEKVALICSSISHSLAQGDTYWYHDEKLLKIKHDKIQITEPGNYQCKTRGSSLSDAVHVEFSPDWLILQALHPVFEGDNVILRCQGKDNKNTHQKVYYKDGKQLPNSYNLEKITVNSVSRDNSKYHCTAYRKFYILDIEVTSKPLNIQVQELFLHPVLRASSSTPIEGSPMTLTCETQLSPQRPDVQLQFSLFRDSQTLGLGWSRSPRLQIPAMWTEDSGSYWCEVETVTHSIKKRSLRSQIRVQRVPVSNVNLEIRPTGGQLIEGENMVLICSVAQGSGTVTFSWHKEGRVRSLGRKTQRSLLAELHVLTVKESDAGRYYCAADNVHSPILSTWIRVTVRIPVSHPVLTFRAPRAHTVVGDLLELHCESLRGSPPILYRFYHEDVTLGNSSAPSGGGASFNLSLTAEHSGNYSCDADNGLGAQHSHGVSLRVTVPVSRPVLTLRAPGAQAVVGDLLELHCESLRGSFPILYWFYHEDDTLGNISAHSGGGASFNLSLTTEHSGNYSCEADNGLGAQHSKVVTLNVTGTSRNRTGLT
Experimental: as §1, §2

[4] = target: T4, IRTA4 extracellular domain-Fc fusion protein (human, UniProt Q96LA5 20-401)
T4 construct: Whole entry named; also called IRTA4-Fc; IRTA4 (Fc-fusion); not shown: human IgG1 hinge and Fc
T4 sequence: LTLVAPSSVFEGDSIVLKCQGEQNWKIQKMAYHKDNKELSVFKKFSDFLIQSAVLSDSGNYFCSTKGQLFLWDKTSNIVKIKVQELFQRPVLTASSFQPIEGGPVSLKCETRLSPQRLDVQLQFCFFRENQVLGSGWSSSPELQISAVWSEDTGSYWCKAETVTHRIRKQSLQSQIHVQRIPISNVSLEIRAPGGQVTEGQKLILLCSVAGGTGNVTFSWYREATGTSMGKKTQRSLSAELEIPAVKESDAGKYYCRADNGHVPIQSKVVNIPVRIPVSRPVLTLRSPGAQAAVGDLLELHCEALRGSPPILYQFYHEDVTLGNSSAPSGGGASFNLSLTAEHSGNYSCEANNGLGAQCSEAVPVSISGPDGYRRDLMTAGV
Experimental: as §1, §2

Measured: binding result

B1: F25 (antibody, IgG2a, V domains shown)
VH: EVQLQQSGPELVKPGTSVKMSCKASGYSFTGYFMNWMMQNHGKSLEWIGRINLYNGDTFYNQKFKDKATLTVDKSSNTVHMEFRSLASEDSAVYYCASSLYYFDYWGQGTTFTVSS
VL: DIVMTQSHKFMSTSVGDRVNITCKASQDVGTNVAWYQQKPGQSPKLLIYWASTRQTGVPDRFTGSGSGTDFTLTISNVQSEDLSDYFCQQYSSYPLTFGAGTKLELKR
notes: mouse hybridoma MAb, IgG2a, kappa; also called MAb F25; biotin-MAb F25
no binding: all assays above
